In PMC4481117:

Legend:
[1] = biological target: D100 fragment of fibrinogen (mol. weight 100,000 Da); assay: ELISA; solid-phase binding: wells coated with Dyn A or fibrinogen D100 overnight at 4 °C, 3 % BSA; GST-αMI-domains in 20 mM Tris-HCl pH 7.4, 100 mM NaCl, 1 mM MgCl2, 1 mM CaCl2, 0.05 % Tween 20, 5 % glycerol, 1.5 h at 22 °C; detected with anti-GST mAb
[2] = biological target: integrin Mac-1 (αMβ2, CD11b/CD18) on HEK293 cells (UniProt P11215); assay: inhibition of cell adhesion; calcein-labeled Mac-1-HEK293 cells preincubated with 1 μg/ml NIF, added to wells coated with 2 μM Dyn A; heparin 10 μg/ml on the coated wells where named; adhesion without inhibitors = 100 %
[3] = biological target: integrin Mac-1 on IC-21 murine macrophages (mouse (endogenous in IC-21)) (UniProt P05555)
Chain of integrin Mac-1 on IC-21 murine macrophages (mouse (endogenous in IC-21)) (P05555 17-1153, chain 1 of 2): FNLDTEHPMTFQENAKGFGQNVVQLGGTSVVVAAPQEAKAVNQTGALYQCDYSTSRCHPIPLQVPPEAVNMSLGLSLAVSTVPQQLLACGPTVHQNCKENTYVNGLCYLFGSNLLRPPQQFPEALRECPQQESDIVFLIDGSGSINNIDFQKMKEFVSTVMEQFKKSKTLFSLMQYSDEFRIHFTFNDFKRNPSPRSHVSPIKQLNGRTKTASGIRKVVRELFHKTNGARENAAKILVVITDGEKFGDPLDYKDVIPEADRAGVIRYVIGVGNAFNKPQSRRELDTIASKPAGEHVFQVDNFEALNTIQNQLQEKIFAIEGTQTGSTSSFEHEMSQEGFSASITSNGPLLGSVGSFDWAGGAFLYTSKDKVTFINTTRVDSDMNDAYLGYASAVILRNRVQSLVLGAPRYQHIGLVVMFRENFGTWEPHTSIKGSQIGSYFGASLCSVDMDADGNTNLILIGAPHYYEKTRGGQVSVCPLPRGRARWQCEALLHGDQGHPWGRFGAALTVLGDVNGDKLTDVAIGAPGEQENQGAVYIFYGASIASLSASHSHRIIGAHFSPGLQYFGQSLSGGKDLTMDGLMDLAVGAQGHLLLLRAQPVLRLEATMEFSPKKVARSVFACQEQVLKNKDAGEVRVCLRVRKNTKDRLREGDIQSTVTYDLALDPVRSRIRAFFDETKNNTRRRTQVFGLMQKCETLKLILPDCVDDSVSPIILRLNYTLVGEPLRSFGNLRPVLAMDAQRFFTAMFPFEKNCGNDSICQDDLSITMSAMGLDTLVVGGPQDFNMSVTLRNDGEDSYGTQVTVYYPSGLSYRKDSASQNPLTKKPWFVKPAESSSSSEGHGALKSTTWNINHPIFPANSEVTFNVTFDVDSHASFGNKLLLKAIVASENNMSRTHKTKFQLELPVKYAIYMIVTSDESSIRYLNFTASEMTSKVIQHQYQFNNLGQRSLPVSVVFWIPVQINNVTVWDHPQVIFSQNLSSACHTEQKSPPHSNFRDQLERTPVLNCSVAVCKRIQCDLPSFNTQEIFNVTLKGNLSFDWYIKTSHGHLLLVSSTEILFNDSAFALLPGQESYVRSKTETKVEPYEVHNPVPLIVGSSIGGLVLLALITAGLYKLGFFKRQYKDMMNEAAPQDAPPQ
Chain of integrin Mac-1 on IC-21 murine macrophages (mouse (endogenous in IC-21)) (P11835 24-771, chain 2 of 2, further chain): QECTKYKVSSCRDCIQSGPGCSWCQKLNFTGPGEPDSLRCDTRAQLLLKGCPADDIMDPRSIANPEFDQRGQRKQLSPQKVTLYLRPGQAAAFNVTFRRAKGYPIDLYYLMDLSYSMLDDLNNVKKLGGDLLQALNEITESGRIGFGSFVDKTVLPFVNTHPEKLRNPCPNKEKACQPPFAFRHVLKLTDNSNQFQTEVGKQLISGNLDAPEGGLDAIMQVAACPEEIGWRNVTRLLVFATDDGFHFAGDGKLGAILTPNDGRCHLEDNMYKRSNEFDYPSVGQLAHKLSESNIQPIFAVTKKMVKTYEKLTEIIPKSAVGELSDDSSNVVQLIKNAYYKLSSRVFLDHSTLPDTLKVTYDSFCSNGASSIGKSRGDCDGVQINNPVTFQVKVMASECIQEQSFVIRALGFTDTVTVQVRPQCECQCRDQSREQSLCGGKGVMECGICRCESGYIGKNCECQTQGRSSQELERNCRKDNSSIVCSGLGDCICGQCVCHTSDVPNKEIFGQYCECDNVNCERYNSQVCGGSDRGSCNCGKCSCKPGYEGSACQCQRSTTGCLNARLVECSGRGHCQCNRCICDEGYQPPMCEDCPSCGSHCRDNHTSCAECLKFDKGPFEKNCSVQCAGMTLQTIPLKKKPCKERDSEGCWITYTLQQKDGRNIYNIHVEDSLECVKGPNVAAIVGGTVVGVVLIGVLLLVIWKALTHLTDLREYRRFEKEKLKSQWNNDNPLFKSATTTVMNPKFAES

fold binding over the nonactive αMI-domain [1]	Substance	percent inhibition of the adhesion of Mac-1-HEK293 cells to Dyn A (2 μM coating) [2]	percent inhibition of the adhesion of Mac-1-HEK293 cells to Dyn A (2 μM coating), NIF combined with heparin [2]	inhibition by NIF (2 μg/ml) of the phagocytosis of Dyn A-coated beads by IC-21 macrophages (blocked pair: Dyn A and Mac-1) [3]
3.5 fold	GST-αMI-domain, active conformation (residues Glu123-Lys315) (from UniProt P11215 139-331) (domain or fragment)			
	Neutrophil inhibitory factor (NIF) (natural protein)	65%	> 95%	70%
